Laboratory results taken from PMC3727926 (Molecular Biology of the Cell, 2013).

T1: GST-Bud2-N, GST-tagged N-terminal 336 amino acids of Bud2p (S. cerevisiae, UniProt P33314 1-336)
T1 sequence (looked up): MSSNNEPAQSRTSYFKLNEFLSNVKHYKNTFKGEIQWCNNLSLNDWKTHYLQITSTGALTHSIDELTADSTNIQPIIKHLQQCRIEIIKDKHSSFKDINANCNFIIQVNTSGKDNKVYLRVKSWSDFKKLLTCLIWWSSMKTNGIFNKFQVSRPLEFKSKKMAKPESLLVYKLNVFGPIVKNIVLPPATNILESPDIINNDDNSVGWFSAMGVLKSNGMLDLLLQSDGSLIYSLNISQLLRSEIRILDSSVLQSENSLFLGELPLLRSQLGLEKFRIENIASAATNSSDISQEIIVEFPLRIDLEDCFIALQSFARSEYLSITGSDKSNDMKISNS

T2: His-Arf3, purified, prebound with GTPγS or GDP (S. cerevisiae, UniProt P40994 1-183)
T2 sequence (looked up): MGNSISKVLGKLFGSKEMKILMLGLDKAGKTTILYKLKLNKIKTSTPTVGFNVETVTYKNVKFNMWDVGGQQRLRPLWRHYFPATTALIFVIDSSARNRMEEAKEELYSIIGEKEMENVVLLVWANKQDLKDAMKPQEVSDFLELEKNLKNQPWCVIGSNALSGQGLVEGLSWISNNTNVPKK

B1: His-Arf3^Q71L, recombinant histidine-tagged constitutively active Arf3 (natural protein, S. cerevisiae, UniProt P40994 1-183, looked up)
chain: MGNSISKVLGKLFGSKEMKILMLGLDKAGKTTILYKLKLNKIKTSTPTVGFNVETVTYKNVKFNMWDVGGLQRLRPLWRHYFPATTALIFVIDSSARNRMEEAKEELYSIIGEKEMENVVLLVWANKQDLKDAMKPQEVSDFLELEKNLKNQPWCVIGSNALSGQGLVEGLSWISNNTNVPKK

Columns and labels:
Assay in all cases: pull-down
[1] = biological target: T1, GST-Bud2-N, GST-tagged N-terminal 336 …
[2] = biological target: T2, His-Arf3, purified, prebound with GTPγS …
[3] = biological target: B1

binding result [1]	binding result [2]	binding result [3]	Binder
binds	–	–	B1
–	binds	binds	GST-Bud2N1, GST-tagged first 120 residues of Bud2p (domain or fragment, S. cerevisiae, UniProt P33314 1-120, looked up) MSSNNEPAQSRTSYFKLNEFLSNVKHYKNTFKGEIQWCNNLSLNDWKTHYLQITSTGALTHSIDELTADSTNIQPIIKHLQQCRIEIIKDKHSSFKDINANCNFIIQVNTSGKDNKVYLR
